Measured values from PMC8096230.

B1: GRE1 mut (dsDNA)
DNA 1: TGAGTCAGGATTGAGTATTCTCACGG
DNA 2: CCGTGAGAACACTCAGTCCTGACTCA
B2: NSP (non-specific probe) (dsDNA)
DNA 1: TGGGCTGAGGCTGGGTGTGGCCCGAC
DNA 2: GTCGGGCCACACCCAGCCTCAGCCCA
B3: GRE (Gilz) / GREgilz (dsDNA)
DNA 1: TGAGTCAGAACATTGGGTTCCCACGG
DNA 2: CCGTGGGAACCCAATGTTCTGACTCA
B4: GRE2 (Eif4ebp2 GBSe2) (dsDNA)
DNA 1: AGGCTGGGTACACAGAGTGCCCTGCC
DNA 2: GGCAGGGCACTCTGTGTACCCAGCCT
B5: GRE2 mut (dsDNA)
DNA 1: AGGCTGGGTATACAGAATGCCCTGCC
DNA 2: GGCAGGGCACTCTGTGTACCCAGCCT
B6: GRE1 (Eif4ebp2 GBSe1) (dsDNA)
DNA 1: TGAGTCAGGACTGAGTGTTCTCACGG
DNA 2: CCGTGAGAACACTCAGTCCTGACTCA

What was measured:
[1] = target: T1, GR DBD (human, UniProt P04150 412-506); assay: EMSA
[2] = target: T1, GR DBD; assay: MST

T1 sequence (P04150 412-506): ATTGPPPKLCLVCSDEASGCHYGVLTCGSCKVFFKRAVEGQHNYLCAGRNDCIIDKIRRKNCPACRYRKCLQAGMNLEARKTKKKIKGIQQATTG

Binder | binding result [1] | Kd [2] [nM]
B1 | no binding | –
B2 | no binding | –
B3 | – | 154
B4 | – | 204
B5 | no binding | –
B6 | – | 195
